Experimental data reported in patent US20050014687A1.

Molecular target: CG57008 protein, membrane bound (HAVcr-1, Hepatitis A virus cellular receptor 1) (human)
Assay: flow cytometry on polarized human CD4+ Th2 cells, 10 ug/ml; isotype control

PK16.3 isotype matched control mAb (antibody)
geometric mean of the fluorescence intensity: 8.4
